The source of these data is the supplement of paper PMC9170038.

For data set [1], the system named is MS2 coat protein. As to the kind of experiment: apparent KD of MS2 coat protein, switch OFF state (with FMN for OFF switches, without FMN for ON switches); designed switch direction (-1 OFF switch, 1 ON switch): -1; higher = weaker reporter binding. The settings on record: FMN input: 0 or 200 uM; Eterna round: R93 (includes R88 designs). In short, it runs like this:
(§1)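 Normalised binding curves from single clusters were fitted, and the median fit for each design is given as apparent KD. The clusters held designed RNA switches transcribed on-chip from Illumina sequencing clusters. These were titrated with SNAP-549-labelled MS2 coat protein (twofold steps from 0.7 or 1.5 nM to 3 µM, 0.8–1.5 h to 10–20 min per step) in 100 mM Tris-HCl pH 7.5, 80 mM KCl, 4 mM MgCl2, without or with constant ligand.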

The subject of data set [2] is MS2 coat protein. The data set can be described thus: apparent KD of MS2 coat protein, switch ON state; designed switch direction (-1 OFF switch, 1 ON switch): -1; higher = weaker reporter binding. The settings on record: FMN input: 0 or 200 uM; Eterna round: R93 (includes R88 designs). The procedure, abridged:
as §1

Turning to “AUAAAGUGAGGAUAUACAUGAGGAUCACCCAUGUGAAAGUCUAAAAAAAUGACAAAAAGUAGAAGGCACAAAUA [Mai Tai2 ala mod Fisker]”, the “apparent KD of MS2 coat protein” value in the data set with MS2 coat protein [1] was determined as 23.5 nM; in the data set with MS2 coat protein [2] it was 18.8 nM.
With “AUAAGUCGAGGAUAUACGAAAAGCUAGCGAAAGCUAGCGGGACAUGAGGAUCACCCAUGUAGAAGGCGACAAUA [Tetraloop hairpin BlockHead... 61% 5]”, the “apparent KD of MS2 coat protein” value in the data set with MS2 coat protein [1] is 57 nM; in the data set on MS2 coat protein [2] it was 28.4 nM.
For “AUAAGUGCAGGAUAUACGAAAAGCUAGCGAAAGCUAGCGGGACAUGAGGAUCACCCAUGUAGAAGGGCACAAUA [Tetraloop hairpin BlockHead... 61% 6]” the same measures were 50.3 nM and 25 nM.
For “AUAAUGUGAGGAUAUACAUGAGGAUCACCCAUGUAAUUAAAAAGGAGAGACACAAUUCGUAGAAGGUACAUUUA [JR_Exc003_Sub509]” the same measures were 26.3 nM and 23.4 nM.
Consider “AUAAUGUGAGGAUAUACAUGAGGAUCACCCAUGUAAUUAAAUAGGAGAGACACAAUUCGUAGAAGGUACAUUUA [JR_Exc003_Sub508]”, for which the “apparent KD of MS2 coat protein” value turned out to be 27.7 nM in the data set with MS2 coat protein [1] and 29.4 nM in the data set on MS2 coat protein [2].
Take “AUAGGCCUAGGAUAUACAUGAGGAUCACCCAUGUAAAUAAAUCGAUCAUGAUAAACGUGUAGAAGGAGGAAUAA [JR_Exc003_Sub206]”: the “apparent KD of MS2 coat protein” value in the data set with MS2 coat protein [1] worked out at 39.5 nM; in the data set on MS2 coat protein [2], 28.8 nM.
Take “AUAGGCCUAGGAUAUACAUGAGGAUCACCCAUGUUAACACUGCAAUCAAGUUAAUAUUGUAGAAGGAGGAAUAA [JR_Exc003_Sub310]”: the “apparent KD of MS2 coat protein” value in the data set with MS2 coat protein [1] was determined as 26.1 nM; with MS2 coat protein [2] it was 26.3 nM.
For “AUAGGCCUAGGAUAUACAUGAGGAUCACCCAUGUUAAUACUUCAAUCAAGAUAAAAGUGUAGAAGGAGGAAUAA [JR_Exc003_Sub306]”, the “apparent KD of MS2 coat protein” value in the data set with MS2 coat protein [1] is 30.9 nM; in the data set with MS2 coat protein [2], 26.7 nM.
With “AUAGUACAUGAGGAUCACCCAUGUCAGGAUAUCGGAUAUGACAUGAAAAAAAUGUUAACGAGAAGGGACUAUAA [EX1 Malc#18]”, the “apparent KD of MS2 coat protein” value is 49.8 nM in the data set on MS2 coat protein [1] and 44.3 nM with MS2 coat protein [2].
For the sequence “AUAGUACAUGAGGAUCACCCAUGUCAGGAUAUCGGAUGUGACAUGAAAAAAAUGUUAGUGAGAAGGGACUAUAA [EX1 Malc#18 Mod 3 - Jieux - Exclusion 1]”, the “apparent KD of MS2 coat protein” value was found to be 111 nM in the data set with MS2 coat protein [1] and 66.9 nM in the data set with MS2 coat protein [2].
For “AUCAUGUUAGGAUAUACAAGAAAAGAAAAGAAAGAAAAGAAGUAGAAGGAACAUGAGGAUCACCCAUGUAAGAA [EteRNA is fun!]”, in that order: 32.3 nM and 23.6 nM.
For the sequence “AUCAUGUUAGGAUAUUUAAGAAAAGAAAAGAAAGAAAAGAAAAAGAAGGAACAUGAGGAUCACCCAUGUAAGAA [EteRNA is fun!]”, the “apparent KD of MS2 coat protein” value in the data set with MS2 coat protein [1] worked out at 22 nM; in the data set with MS2 coat protein [2], 27.5 nM.
For “AUCUACCUAGGAUAUACAUGAGGAUCACCCAUGUACAGAUACAACAAGGGAAACACACGUAGAAGGAGGAAGAU [JR_Exc003_Sub1206]”, in that order: 60.8 nM and 25.8 nM.
“AUCUAGUCAGGAUAUGACUACAUAAAAAAAAAAAAAUGUAGUCAGAAGGGACAUGAGGAUCACCCAUGUACUAA [HSL_Exclusion 4 64% 1]”: the “apparent KD of MS2 coat protein” value in the data set on MS2 coat protein [1] worked out at 24.8 nM; in the data set with MS2 coat protein [2], 37.3 nM.
With “AUCUAGUGAGGAUAUCGUACAAUAUGGAAAACAUAGAGGUACGAGAAGGCACAUGAGGAUCACCCAUGUAAAAC [May 100]”, the “apparent KD of MS2 coat protein” value was 36.5 nM with MS2 coat protein [1] and 26.8 nM in the data set with MS2 coat protein [2].
For “AUCUUGUCAGGAUAUCGUACAAUAUGGAAAACAUAGAGGUACGAGAAGGGACAUGAGGAUCACCCAUGUAAAAC [May 98]”, in that order: 73.7 nM and 59.5 nM.
“AUGAGAGCAGGAUAUGCAGGUGUGCCGGAAGAAAGAAGAAGACAUGAGGAUCACCCAUGUAGAAGGGCUAGCCC [Bibidi]”: the “apparent KD of MS2 coat protein” value with MS2 coat protein [1] came out at 18.5 nM; with MS2 coat protein [2] it was 30 nM.
“AUGUAGGUAGGAUAUACAUGGAUAUACAUUCAUGUGGACCUACAUGAGGAUCACCCAUGUAGAAGGACCUAAAA [Mat - Same state - Mayanna Mod - D128]”: the entries for the “apparent KD of MS2 coat protein” value with MS2 coat protein [1] and in the data set on MS2 coat protein [2] were 39.4 nM and 45 nM, respectively.
In the case of “CAAAGGUGAGGAUAUACAAAAAAAUGACGAAAGUCAUCCACACAUGAGGAUCACCCAUGUAGAAGGCACCACAA [E2 64% 6]”, the “apparent KD of MS2 coat protein” value in the data set with MS2 coat protein [1] amounted to 29.2 nM; with MS2 coat protein [2], 30 nM.
As for “CAAAGGUGAGGAUAUACAUAACUAUGACGAAAGUCAUAAAAACAUGAGGAUCACCCAUGUAGAAGGCACCACAA [E2 64% 1]”, the “apparent KD of MS2 coat protein” value in the data set with MS2 coat protein [1] came out at 31.3 nM; in the data set with MS2 coat protein [2], 38.1 nM.
“CAAAGGUGAGGAUAUGCAUAACUAUGACGAAAGUCAUAAACACAUGAGGAUCACCCAUGUAGAAGGCACCACAA [e2-2]”: the “apparent KD of MS2 coat protein” value came out at 18.8 nM in the data set with MS2 coat protein [1] and 37.2 nM in the data set on MS2 coat protein [2].
For “CAAAGUGGAGGAUAUACAUGAGGAUCACCCAUGUAAGGACAAUAAAUAAGAAGAAGAAGUAGAAGGCCACUCAA [e3-2]” the same measures were 40.2 nM and 28.9 nM.
Consider “CACAAGUCAGGAUAUUCGACAAGUAAAUCAGUAGAUCAAAAGAAGAAGGGACAUGAGGAUCACCCAUGUAAAUA [JR_Exc004_Sub402]”, for which the “apparent KD of MS2 coat protein” value was 22.3 nM in the data set on MS2 coat protein [1] and 39.1 nM in the data set on MS2 coat protein [2].
For “CACGGACAUGAGGAUCACCCAUGUGAGGAUAUGCUCUACGAACGUUUUCCCACGAGAAGCAGAAGGCACAUUUC [try 2]”, in that order: 90.8 nM and 42.6 nM.
For “CACGUACAUGAGGAUCACCCAUGUUAGGAUAUGCCGGGUAAGAGAAAACAAAAAAUCAGCAGAAGGGACGAAAC [Bilbo Confounded 17 - Jieux - Exclusion 1]” the same measures were 31.8 nM and 34.1 nM.
For “CAGUACUGAGGAUAUACAUGAGGAUCACCCAUGUAUCCAAGCUAGGAAACUAGCAAAUGUAGAAGGCAGUACUG [Ex3: 821]” the same measures were 319 nM and 37.5 nM.
Consider “CAGUACUGAGGAUAUACAUGAGGAUCACCCAUGUAUCCUAGCUAGGAAACUAGCAAAAGUAGAAGGCAGUACUG [Ex3: 819]”, for which the figures for the “apparent KD of MS2 coat protein” value with MS2 coat protein [1] and with MS2 coat protein [2] were 118 nM and 13.5 nM, respectively.
For “CAGUACUGAGGAUAUACAUGAGGAUCACCCAUGUGGUCAAGCUACGAAAGUAGCAAAAGUAGAAGGCAGUACUG [Ex3: 811]”, the “apparent KD of MS2 coat protein” value with MS2 coat protein [1] was found to be 34.6 nM; in the data set with MS2 coat protein [2], 209 nM.
For “CAGUACUGAGGAUAUACAUGAGGAUCACCCAUGUGUUCCAGCUAGGAAACUAGCAAAUGUAGAAGGCAGUACUG [Ex3: 827]” the same measures were 85.8 nM and 183 nM.
For “CGCUAGUCAGGAUAUACAAACAUGUCAAAAGACGUGAAAAAACAUGAGGAUCACCCAUGUAGAAGGGACUAGCG [Mat - Exclusion 2 - JL mod - D18]”, in that order: 17.7 nM and 15.7 nM.
“CGCUAGUCAGGAUAUACGAACAUGUCAAAAGACGUGAAGGGACAUGAGGAUCACCCAUGUAGAAGGGACUAGCG [Mat - Exclusion 2 - JL mod - D4]”: the “apparent KD of MS2 coat protein” value in the data set on MS2 coat protein [1] stood at 131 nM; with MS2 coat protein [2] it was 30.2 nM.
For “CUCAAGUCAGGAUAUAAAAGAAAAGAAGAGAAAGAAAAGAAUUAGAAGGGACAUGAGGAUCACCCAUGUAAGAA [EteRNA is fun!]” the same measures were 60.6 nM and 66.9 nM.
For “CUCAAGUUAGGAUAUUGAAGAAAAGAAGAGAAAGAAAAGAACAAGAAGGAACAUGAGGAUCACCCAUGUAAGAA [EteRNA is fun!]”, in that order: 21.8 nM and 22.9 nM.
For “CUCAUGUAAGGAUAUCAGUAGUAAAAAAAUAAAAUUACUACUGAGAAGGUACAUGAGGAUCACCCAUGUCCGGG [EX4 374: Super Stable 74]”, in that order: 18.3 nM and 21.7 nM.
Consider “CUCAUGUGAGGAUAUGUACAGAAAAAAAUGGGUGAAACUGUACAGAAGGCACAUGAGGAUCACCCAUGUGAAAA [EX4 378: S S Pseudoknot 3]”, for which the results for the “apparent KD of MS2 coat protein” value in the data set on MS2 coat protein [1] and with MS2 coat protein [2] were 21.1 nM and 26.1 nM, respectively.
For “CUCUAGUCAGGAUAUACAAGAAAAGAAAAGAAAGAAAAGAAGUAGAAGGGACAUGAGGAUCACCCAUGUAAGAA [EteRNA is fun!]” the same measures were 91.5 nM and 70.4 nM.
As to “CUCUAGUGAGGAUAUGCAAGAAAAGAAGAGAAAGAAAAGAAGCAGAAGGCACAUGAGGAUCACCCAUGUAAGAA [EteRNA is fun!]”, the “apparent KD of MS2 coat protein” value with MS2 coat protein [1] came to 71.8 nM; in the data set on MS2 coat protein [2], 32.4 nM.
Turning to “CUCUUGUCAGGAUAUCGAAGAAAAGAAAAGAAAGAAAAGAACGAGAAGGGACAUGAGGAUCACCCAUGUAAGAA [EteRNA is fun!]”, the figures for the “apparent KD of MS2 coat protein” value in the data set with MS2 coat protein [1] and with MS2 coat protein [2] were 67.6 nM and 61.5 nM, respectively.
Consider “CUCUUGUGAGGAUAUAGAAGAAAAGAAGAGAAAGAAAAGAACUAGAAGGCACAUGAGGAUCACCCAUGUAAGAA [EteRNA is fun!]”, for which the “apparent KD of MS2 coat protein” value in the data set with MS2 coat protein [1] worked out at 39.9 nM; in the data set with MS2 coat protein [2], 34.3 nM.
For the sequence “CUCUUGUGAGGAUAUUGAAGAAAAGAAAAGAAAGAAAAGAACAAGAAGGCACAUGAGGAUCACCCAUGUAAGAA [EteRNA is fun!]”, the “apparent KD of MS2 coat protein” value in the data set with MS2 coat protein [1] is 36.5 nM; in the data set on MS2 coat protein [2], 24.8 nM.
